Laboratory results published in publication PMC2864739, “Crystal Structure of the Neutralizing Llama VHH D7 and Its Mode of HIV-1 gp120 Interaction” (PLoS ONE, 2010).

How the values were obtained:
[1] = target: T1, HIV-1 envelope glycoprotein gp120 (IIIB) (HIV-1 IIIB (HXB2 clone entry), UniProt P04578); assay: SPR; gp120 (IIIB) coupled covalently to a CM5 chip; D7 or D7 mutants at 25 and 100 nM flowed over; Biacore X; 10 mM HEPES pH 7.5, 100 mM NaCl, 0.05% P20; 30 µl/min; association 3 min, dissociation 15 min; simultaneous fit of association and dissociation; conditions: both partners purified
[2] = target: T1, HIV-1 envelope glycoprotein gp120 (IIIB); assay: cell-based or functional assay

Row | Binder | Kd [1] [nM] | koff [1] [s⁻¹] | kon [1] [M⁻¹ s⁻¹] | IC50 of neutralisation of HIV-1 IIIB in TZM-bl cells, Average [2] [µg/mL] | IC50 of neutralisation of HIV-1 IIIB in TZM-bl cells, Exp1 [2] [µg/mL] | IC50 of neutralisation of HIV-1 IIIB in TZM-bl cells, Exp2 [2] [µg/mL]
1 | llama heavy chain antibody fragment VHH D7, wild type (VHH, PDB 2xa3 holds D7 with the framework changes Val5Gln, Ala11Val, Ala61Val, Ala68Asp and Ser79Tyr against wild type D7) VHH: AVQLVESGGGLAQAGGSLRLSCTVSGRTSSSHDMGWFRQAPGKEREFVAAISWSGGTTNYADSVKGRFAISKDNAKNAVSLQMNSLKPEDTAVYYCAAKWRPLRYSDNPSNSDYNYWGQGTQVTVSS | 2.91 ± 0.87 | 0.000551 | 155000 | 0.054 | 0.066 | 0.041
2 | VHH D7 Asp100C→Ala (VHH, PDB 2xa3 holds D7 with five framework changes) with the stated CDR3 mutation; Chothia numbering (100C is an insertion position)) VHH: AVQLVESGGGLAQAGGSLRLSCTVSGRTSSSHDMGWFRQAPGKEREFVAAISWSGGTTNYADSVKGRFAISKDNAKNAVSLQMNSLKPEDTAVYYCAAKWRPLRYSANPSNSDYNYWGQGTQVTVSS | 0.84 ± 0.12 | 0.000199 | 236000 | 0.027 | 0.4 | 0.014
3 | VHH D7 double mutant Asn101→Tyr/Tyr102→Asp (VHH, PDB 2xa3 holds D7 with five framework changes) with the stated CDR3 mutations; Chothia numbering; also called double mutant Asn^101Tyr^102) VHH: AVQLVESGGGLAQAGGSLRLSCTVSGRTSSSHDMGWFRQAPGKEREFVAAISWSGGTTNYADSVKGRFAISKDNAKNAVSLQMNSLKPEDTAVYYCAAKWRPLRYSDNPSNSDYYDWGQGTQVTVSS | 0.18 ± 0.15 | 3.3e-05 | 187000 | 0.011 | 0.017 | 0.005
4 | VHH D7 Lys95→Ser (VHH, PDB 2xa3 holds D7 with five framework changes) with the stated CDR3 mutation; Chothia numbering) VHH: AVQLVESGGGLAQAGGSLRLSCTVSGRTSSSHDMGWFRQAPGKEREFVAAISWSGGTTNYADSVKGRFAISKDNAKNAVSLQMNSLKPEDTAVYYCAASWRPLRYSDNPSNSDYNYWGQGTQVTVSS | 377 ± 276 | 0.00236 | 13000 | 3 | 3.43 | 2.64
5 | VHH D7 Tyr100A→Ala (VHH, PDB 2xa3 holds D7 with five framework changes) with the stated CDR3 mutation; Chothia numbering (100A is an insertion position)) VHH: AVQLVESGGGLAQAGGSLRLSCTVSGRTSSSHDMGWFRQAPGKEREFVAAISWSGGTTNYADSVKGRFAISKDNAKNAVSLQMNSLKPEDTAVYYCAAKWRPLRASDNPSNSDYNYWGQGTQVTVSS | 1.55 ± 0.07 | 0.000359 | 233000 | 0.023 | 0.028 | 0.018
6 | VHH D7 Asn100D→Ala (VHH, PDB 2xa3 holds D7 with five framework changes) with the stated CDR3 mutation; Chothia numbering (100D is an insertion position)) VHH: AVQLVESGGGLAQAGGSLRLSCTVSGRTSSSHDMGWFRQAPGKEREFVAAISWSGGTTNYADSVKGRFAISKDNAKNAVSLQMNSLKPEDTAVYYCAAKWRPLRYSDAPSNSDYNYWGQGTQVTVSS | 0.51 ± 0.02 | 0.000128 | 252000 | – | – | –
7 | VHH D7 Trp96→Ala (VHH, PDB 2xa3 holds D7 with five framework changes) with the stated CDR3 mutation; Chothia numbering) VHH: AVQLVESGGGLAQAGGSLRLSCTVSGRTSSSHDMGWFRQAPGKEREFVAAISWSGGTTNYADSVKGRFAISKDNAKNAVSLQMNSLKPEDTAVYYCAAKARPLRYSDNPSNSDYNYWGQGTQVTVSS | 27.9 ± 20.5 | 0.00313 | 146000 | 2.6 | 2.72 | 2.43
8 | VHH D7 Leu99→Ala (VHH, PDB 2xa3 holds D7 with five framework changes) with the stated CDR3 mutation; Chothia numbering) VHH: AVQLVESGGGLAQAGGSLRLSCTVSGRTSSSHDMGWFRQAPGKEREFVAAISWSGGTTNYADSVKGRFAISKDNAKNAVSLQMNSLKPEDTAVYYCAAKWRPARYSDNPSNSDYNYWGQGTQVTVSS | 69.9 ± 14.2 | 0.005 | 14000 | 0.69 | 0.817 | 0.56
